The target of experiment [1] is T1, complement factor C3b (UniProt P01024 23-667; P01024 749-1663). Nature of the experiment: SPR, C3b amine-coupled (4030 RU), 1:1 steady-state affinity fit. The source says:
FIG. 3: C3b binding activity of miniFH and Fc-fusion variants of miniFH. Surface plasmon resonance (SPR) sensorgrams for C3b binding of miniFH (A), miniFH-Fc (C), Fc-miniFH (E) and Fc-miniFH-short (G) (assayed at a concentration range as specified; 4030 RU of C3b were deposited by amine). (B) Respective concentration response plots with fitted affinity (1:1 steady-state affinity fit) for C3b binding of miniFH (B), miniFH-Fc (D), Fc-miniFH (F) and Fc-miniFH-short (H) are shown. The affinity equilibrium constant is stated in the panes.
Surface plasmon resonance experiments were performed at 25° C. on a Reichert SR7500DC SPR instrument in PBS containing 0.005% Tween20 at a flow of 25 μl/min. 4030 response units (RU) of C3b were immobilized onto a carboxymethyldextran (CMD) 500 sensor chip (Xantec) and binding to amine coupled C3b was assayed. The analytes were injected at the indicated concentrations. To probe binding, a concentration series of miniFH or Fc fusions of miniFH were injected (at 25 μl/min for 2.5 min) followed by buffer flow for 300 s and a regeneration step consisting of an injection of 1 M NaCl for 30 s. The highest concentration of each series was injected twice to assess reproducibility. […]
(In general: SPR reads the build-up and loss of mass on a sensor chip optically.)

For experiment [2], the target named is T1, complement factor C3b. Briefly: SPR, C3b amine-coupled (5610 RU), DAF-Fc as analyte. How it is done: 2600 RU of Bb were deposited by standard amine coupling onto a carboxymethyldextran sensorchip. Running buffer was PBS supplemented with 1 mM MgCl2 and 0.005% Tween 20. […] 5610 RU of C3b were deposited by standard amine coupling onto a carboxymethyldextran sensorchip. Running buffer was PBS supplemented with 1 mM MgCl2 and 0.005% Tween 20.

Experimental findings from patent US20210355178A1 (UNIVERSIT T ULM, published 2021) are described below.

T1 sequence (P01024 23-667 limits assumed, chain 1 of 2): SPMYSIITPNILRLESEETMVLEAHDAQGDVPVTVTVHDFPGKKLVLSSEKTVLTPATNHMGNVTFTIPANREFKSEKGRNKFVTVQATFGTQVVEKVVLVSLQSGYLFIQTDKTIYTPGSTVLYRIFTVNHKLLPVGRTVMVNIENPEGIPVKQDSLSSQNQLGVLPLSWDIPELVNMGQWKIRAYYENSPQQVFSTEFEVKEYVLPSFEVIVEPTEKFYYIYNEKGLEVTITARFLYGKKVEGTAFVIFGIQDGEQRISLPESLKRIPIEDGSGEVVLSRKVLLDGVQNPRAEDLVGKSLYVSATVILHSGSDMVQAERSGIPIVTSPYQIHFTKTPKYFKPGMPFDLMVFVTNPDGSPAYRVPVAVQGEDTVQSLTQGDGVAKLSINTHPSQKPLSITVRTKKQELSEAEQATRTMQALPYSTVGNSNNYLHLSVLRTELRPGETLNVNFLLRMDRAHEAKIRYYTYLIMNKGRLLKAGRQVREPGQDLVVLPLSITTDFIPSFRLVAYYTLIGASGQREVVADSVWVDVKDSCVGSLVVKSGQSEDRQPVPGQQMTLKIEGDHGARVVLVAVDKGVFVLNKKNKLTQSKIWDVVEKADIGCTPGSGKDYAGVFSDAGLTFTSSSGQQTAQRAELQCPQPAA
T1 sequence (P01024 749-1663 limits assumed, chain 2 of 2): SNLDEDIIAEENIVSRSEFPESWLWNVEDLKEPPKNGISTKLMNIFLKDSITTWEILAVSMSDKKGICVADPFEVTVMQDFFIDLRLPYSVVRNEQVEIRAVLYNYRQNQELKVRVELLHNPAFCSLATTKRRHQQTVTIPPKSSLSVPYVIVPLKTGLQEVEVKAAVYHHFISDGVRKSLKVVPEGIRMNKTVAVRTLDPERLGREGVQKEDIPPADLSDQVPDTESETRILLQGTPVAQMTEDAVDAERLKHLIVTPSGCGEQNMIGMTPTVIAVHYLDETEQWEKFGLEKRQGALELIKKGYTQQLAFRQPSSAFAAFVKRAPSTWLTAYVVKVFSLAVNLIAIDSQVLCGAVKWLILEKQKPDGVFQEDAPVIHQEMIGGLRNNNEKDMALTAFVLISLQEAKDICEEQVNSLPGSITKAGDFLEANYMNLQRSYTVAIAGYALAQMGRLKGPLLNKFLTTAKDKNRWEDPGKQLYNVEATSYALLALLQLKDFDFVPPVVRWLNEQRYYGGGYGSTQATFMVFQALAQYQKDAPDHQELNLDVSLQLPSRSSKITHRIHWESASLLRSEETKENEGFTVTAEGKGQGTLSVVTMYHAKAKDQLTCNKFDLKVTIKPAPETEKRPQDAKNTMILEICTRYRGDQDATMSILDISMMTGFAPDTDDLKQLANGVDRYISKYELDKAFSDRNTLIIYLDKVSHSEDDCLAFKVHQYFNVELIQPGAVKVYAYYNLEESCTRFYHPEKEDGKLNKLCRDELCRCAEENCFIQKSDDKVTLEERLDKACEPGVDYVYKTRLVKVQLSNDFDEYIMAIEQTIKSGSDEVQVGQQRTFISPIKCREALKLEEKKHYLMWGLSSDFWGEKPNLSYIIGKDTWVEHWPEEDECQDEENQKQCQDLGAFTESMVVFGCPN

B1: miniFH-Fc (Fc fusion)
chain: EDCNELPPRRNTEILTGSWSDQTYPEGTQAIYKCRPGYRSLGNIIMVCRKGEWVALNPLRKCQKRPCGHPGDTPFGTFTLTGGNVFEYGVKAVYTCNEGYQLLGEINYRECDTDGWTNDIPICEVVKCLPVTAPENGKIVSSAMEPDREYHFGQAVRFVCNSGYKIEGDEEMHCSDDGFWSKEKPKCVEISCKSPDVINGSPISQKIIYKENERFQYKCNMGYEYSERGDAVCTESGWRPLPSCEEAGGGGGGGGGGGGGKCGPPPPIDNGDITSFPLSVYAPASSVEYQCQNLYQLEGNKRITCRNGQWSEPPKCLHPCVISREIMENYNIALRWTAKQKLYSRTGESVEFVCKRGYRLSSRSHTLRTTCWDGKLEYPTCAGPGGGGGPGCPAPELLGGPSVFLFPPKPKDTLMISRTPEVTCVVVDVSHEDPEVKFNWYVDGVEVHNAKTKPREEQYQSTYRVVSVLTVLHQDWLNGKEYKCKVSNKALPAPIEKTISKAKGQPREPQVYTLPPSREEMTKNQVSLTCLVKGFYPSDIAVEWESNGQPENNYKTTPPVLDSDGSFFLYSKLTVDKSRWQQGNVFSCSVMHEALHNHYTQKSLSLSPGGGGGGG
notes: Produced in Pichia pastoris
As for B1, in the experiment with complement factor C3b [1], the “fold increased affinity over miniFH” value is around 2 fold.

B2: DAF-Fc (Fc fusion)
chain: DCGLPPDVPNAQPALEGRTSFPEDTVITYKCEESFVKIPGEKDSVICLKGSQWSDIEEFCNRSCEVPTRLNSASLKQPYITQNYFPVGTVVEYECRPGYRREPSLSPKLTCLQNLKWSTAVEFCKKKSCPNPGEIRNGQIDVPGGILFGATISFSCNTGYKLFGSTSSFCLISGSSVQWSDPLPECREIYCPAPPQIDNGIIQGERDHYGYRQSVTYACNKGFTMIGEHSIYCTVNNDEGEWSGPPPECRGGGGGGPGCPAPELLGGPSVFLFPPKPKDTLMISRTPEVTCVVVDVSHEDPEVKFNWYVDGVEVHNAKTKPREEQYQSTYRVVSVLTVLHQDWLNGKEYKCKVSNKALPAPIEKTISKAKGQPREPQVYTLPPSREEMTKNQVSLTCLVKGFYPSDIAVEWESNGQPENNYKTTPPVLDSDGSFFLYSKLTVDKSRWQQGNVFSCSVMHEALHNHYTQKSLSLSPGGGGGGG
notes: not shown: Fc module at the C-terminus
For the molecule B2, the binding result with complement factor C3b [2] is given as “no binding”.
